Data: paper PMC6650976, “Experimental Insight into the Structural and Functional Roles of the ‘Black’ and ‘Gray’ Clusters in Recoverin, a Calcium Binding Protein with Four EF-Hand Motifs” (Molecules, 2019)
Changes are numbered by the printed parent chain.

B1: recombinant wild type human recoverin (natural protein, UniProt P35243 1-200, looked up)
chain: MGNSKSGALSKEILEELQLNTKFSEEELCSWYQSFLKDCPTGRITQQQFQSIYAKFFPDTDPKAYAQHVFRSFDSNLDGTLDFKEYVIALHMTTAGKTNQKLEWAFSLYDVDGNGTISKNEVLEIVMAIFKMITPEDVKLLPDDENTPEKRAEKIWKYFGKNDDDKLTEKEFIEGTLANKEILRLIQFEPQKVKEKMKNA
modifications: myristoyl group at the N terminus (degree of myristoylation exceeded 89%)
notes: recoverin, human, UniProt P35243; cDNA from Y79 retinoblastoma cells, amplified with primers from the start codon to the stop codon, subcloned into pET-15b(+) by NcoI and XhoI; also called rWT; rWT recoverin; source: E. coli pET15b rec/pBB131/BL21(DE3)RILLC+, purified (phenyl-Sepharose, Toyopearl SuperQ-650M)
B2: human recoverin mutant W156A (natural protein, UniProt P35243 1-200, looked up)
chain: B1 chain with W156A
modifications: myristoylated (fraction of non-myristoylated forms did not exceed 16%)
notes: recoverin, human, UniProt P35243, C-terminal 'gray' cluster mutant; Parent construct as m1; source: E. coli, expressed and purified similarly to the rWT protein (phenyl-Sepharose, Toyopearl SuperQ-650M)
B3: human recoverin mutant F49A (natural protein, UniProt P35243 1-200, looked up)
chain: B1 chain with F49A
modifications: myristoylated (fraction of non-myristoylated forms did not exceed 16%)
notes: recoverin, human, UniProt P35243, N-terminal 'gray' cluster mutant; Parent construct as m1; source: E. coli, expressed and purified similarly to the rWT protein (phenyl-Sepharose, Toyopearl SuperQ-650M)
B4: human recoverin mutant F35A (natural protein, UniProt P35243 1-200, looked up)
chain: B1 chain with F35A
modifications: myristoylated (fraction of non-myristoylated forms did not exceed 16%)
notes: recoverin, human, UniProt P35243, N-terminal 'black' cluster mutant; Parent construct as m1; source: E. coli, expressed and purified similarly to the rWT protein (phenyl-Sepharose, Toyopearl SuperQ-650M)
B5: human recoverin mutant K119A (natural protein, UniProt P35243 1-200, looked up)
chain: B1 chain with K119A
modifications: myristoylated (fraction of non-myristoylated forms did not exceed 16%)
notes: as for B2
B6: human recoverin mutant V122A (natural protein, UniProt P35243 1-200, looked up)
chain: B1 chain with V122A
modifications: myristoylated (fraction of non-myristoylated forms did not exceed 16%)
notes: as for B2
B7: human recoverin mutant F70A (natural protein, UniProt P35243 1-200, looked up)
chain: B1 chain with F70A
modifications: myristoylated (fraction of non-myristoylated forms did not exceed 16%)
notes: as for B3
B8: human recoverin mutant Y86A (natural protein, UniProt P35243 1-200, looked up)
chain: B1 chain with Y86A
modifications: myristoylated (fraction of non-myristoylated forms did not exceed 16%)
notes: as for B4
B9: human recoverin mutant F106A (natural protein, UniProt P35243 1-200, looked up)
chain: B1 chain with F106A
modifications: myristoylated (fraction of non-myristoylated forms did not exceed 16%)
notes: recoverin, human, UniProt P35243, C-terminal 'black' cluster mutant; Parent construct as m1; source: E. coli, expressed and purified similarly to the rWT protein (phenyl-Sepharose, Toyopearl SuperQ-650M)
B10: human recoverin mutant Q46A (natural protein, UniProt P35243 1-200, looked up)
chain: B1 chain with Q46A
modifications: myristoylated (fraction of non-myristoylated forms did not exceed 16%)
notes: as for B3
B11: human recoverin mutant E169A (natural protein, UniProt P35243 1-200, looked up)
chain: B1 chain with E169A
modifications: myristoylated (fraction of non-myristoylated forms did not exceed 16%)
notes: as for B9
B12: human recoverin mutant F83A (natural protein, UniProt P35243 1-200, looked up)
chain: B1 chain with F83A
modifications: myristoylated (fraction of non-myristoylated forms did not exceed 16%)
notes: as for B4
B13: human recoverin mutant F172A (natural protein, UniProt P35243 1-200, looked up)
chain: B1 chain with F172A
modifications: myristoylated (fraction of non-myristoylated forms did not exceed 16%)
notes: as for B9

Target: the molecule itself
Test: cross-linking; Ca2+-loaded proteins: 0.02% glutaric aldehyde, 16 h, 20 °C, protein 1 mg/mL, 20 mM Tricine-KOH pH 7.4, 50 mM KCl, 1 mM DTT, 1 mM CaCl2; SDS-PAGE, Coomassie, densitometry; self-association
Summary of the method: (§1)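 Metal-free recoverin (human, recombinant, E. coli-expressed, purified, treated by gel filtration), along with its modified forms, was crosslinked with 0.02% glutaric aldehyde at 1.0 mg/mL for 16 h at 20 °C. The buffer was 20 mM Tricine-KOH pH 7.4, 50 mM KCl and 1 mM DTT, plus EDTA, MgCl2/EGTA or CaCl2. The share of each oligomer band was quantified in Quantity One as a percentage from scanned, Coomassie-stained gels, which were 15% resolving SDS-PAGE run at 5 µg/lane.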

Point of comparison: B9, “Dimer 50 kDa, %” value 27.11 ± 0.08%. Against it:
- B1 — higher, 30.9 ± 0.4%
- B2 — lower, 25 ± 1.1%
- B3 — lower, 25.5 ± 0.5%
- B4 — higher, 31.7 ± 0.3%
- B5 — lower, 24.4 ± 0.6%
- B6 — the same, 27.1 ± 1.3%
- B7 — higher, 29.3 ± 1.1%
- B8 — within error, 28.5 ± 1.4%
- B10 — within error, 27.3 ± 1.5%
- B11 — within error, 27 ± 0.3%
- B12 — higher, 28.7 ± 0.8%
- B13 — higher, 29.3 ± 0.2%

Point of comparison: B3, “Monomer 20 kDa, %” value 30.6 ± 1.6%. Against it:
- B1 — lower, 15.5 ± 0.6%
- B2 — lower, 20.4 ± 0.7%
- B4 — higher, 37.4 ± 3.6%
- B5 — lower, 19.5 ± 0.4%
- B6 — lower, 15.8 ± 0.2%
- B7 — higher, 40.1 ± 1.8%
- B8 — higher, 35.8 ± 2.7%
- B9 — lower, 17.9 ± 2.1%
- B10 — within error, 31.9 ± 1.9%
- B11 — lower, 16.1 ± 1.5%
- B12 — higher, 38.4 ± 1.4%
- B13 — lower, 22 ± 0.9%

Point of comparison: B10, “Multimer 100–250 kDa, %” value 18.4 ± 0.6%. Against it:
- B1 — higher, 21.55 ± 0.09%
- B2 — higher, 29.8 ± 0.9%
- B3 — higher, 21.08 ± 0.09%
- B4 — lower, 13.2 ± 3.3%
- B5 — higher, 31.38 ± 0.05%
- B6 — higher, 26.7 ± 2.1%
- B7 — lower, 11.4 ± 0.2%
- B8 — lower, 14.2 ± 0.6%
- B9 — higher, 25 ± 0.8%
- B11 — higher, 27.2 ± 0.9%
- B12 — lower, 13.2 ± 0.3%
- B13 — higher, 20 ± 0.3%

Point of comparison: B12, “Trimer 70–100 kDa, %” value 19.7 ± 0.4%. Against it:
- B1 — higher, 32 ± 1.1%
- B2 — higher, 24.8 ± 1%
- B3 — higher, 22.8 ± 1.3%
- B4 — lower, 17.78 ± 0.07%
- B5 — higher, 24.7 ± 0.2%
- B6 — higher, 30.3 ± 0.6%
- B7 — within error, 19.1 ± 0.5%
- B8 — higher, 21.5 ± 0.7%
- B9 — higher, 30 ± 1.4%
- B10 — higher, 22.3 ± 1%
- B11 — higher, 29.6 ± 0.3%
- B13 — higher, 28.8 ± 0.8%

Target: the molecule itself
Test: cross-linking; Mg2+-loaded proteins: 0.02% glutaric aldehyde, 16 h, 20 °C, protein 1 mg/mL, 20 mM Tricine-KOH pH 7.4, 50 mM KCl, 1 mM DTT, 1 mM MgCl2, 1 mM EGTA; SDS-PAGE, Coomassie, densitometry; self-association
Summary of the method: as §1

Point of comparison: B4, “Dimer 50 kDa, %” value 30.9 ± 1.9%. Against it:
- B1 — within error, 31.55 ± 0.09%
- B2 — higher, 36.8 ± 0.2%
- B3 — within error, 32.1 ± 0.5%
- B5 — higher, 46.4 ± 5%
- B6 — higher, 35.3 ± 0.9%
- B7 — lower, 26.9 ± 0.9%
- B8 — higher, 33.9 ± 0.2%
- B9 — higher, 35.4 ± 1%
- B10 — within error, 30.2 ± 0.5%
- B11 — higher, 33.7 ± 0.5%
- B12 — within error, 33.8 ± 1%
- B13 — higher, 36.6 ± 0.7%

Point of comparison: B6, “Monomer 20 kDa, %” value 64.7 ± 0.9%. Against it:
- B1 — higher, 68.45 ± 0.09%
- B2 — lower, 63.2 ± 0.2%
- B3 — higher, 67.9 ± 0.5%
- B4 — higher, 69.1 ± 1.9%
- B5 — lower, 53.6 ± 5%
- B7 — higher, 73.1 ± 0.9%
- B8 — higher, 66.1 ± 0.2%
- B9 — within error, 64.6 ± 1%
- B10 — higher, 69.8 ± 0.5%
- B11 — higher, 66.3 ± 0.5%
- B12 — within error, 66.2 ± 1%
- B13 — within error, 63.4 ± 0.7%

Target: the molecule itself
Test: cross-linking; apo-proteins: 0.02% glutaric aldehyde, 16 h, 20 °C, protein 1 mg/mL, 20 mM Tricine-KOH pH 7.4, 50 mM KCl, 1 mM DTT, 1 mM EDTA; SDS-PAGE, Coomassie, densitometry; self-association
Summary of the method: as §1

Point of comparison: B9, “Dimer 50 kDa, %” value 38 ± 0.3%. Against it:
- B1 — lower, 33.1 ± 1.1%
- B2 — lower, 35.4 ± 0.8%
- B3 — within error, 36.7 ± 1%
- B4 — within error, 37.2 ± 0.5%
- B5 — lower, 36.7 ± 0.8%
- B6 — lower, 27 ± 1.2%
- B7 — lower, 29.3 ± 1.7%
- B8 — lower, 30.7 ± 3%
- B10 — lower, 35.1 ± 1.8%
- B11 — within error, 38.9 ± 1.2%
- B12 — lower, 35.6 ± 0.8%
- B13 — lower, 33.6 ± 2%

Point of comparison: B6, “Monomer 20 kDa, %” value 73 ± 1.2%. Against it:
- B1 — lower, 66.9 ± 1.1%
- B2 — lower, 64.6 ± 0.8%
- B3 — lower, 63.3 ± 1%
- B4 — lower, 62.8 ± 0.5%
- B5 — lower, 63.3 ± 0.8%
- B7 — within error, 70.7 ± 1.7%
- B8 — within error, 69.3 ± 3%
- B9 — lower, 62 ± 0.3%
- B10 — lower, 64.9 ± 1.8%
- B11 — lower, 61.1 ± 1.2%
- B12 — lower, 64.4 ± 0.8%
- B13 — lower, 66.4 ± 2%
